The text below walks through data of US20260274961A1 (BRIGHAM AND WOMEN S HOSPITAL, published 2026).

Changes are numbered by the printed parent chain.

Usually Kd stands for the free concentration of one partner at which half of the binding sites on the other are occupied at equilibrium, for simple one-to-one binding.

For assay [1], the target named is site-specific biotinylated monomeric human CD32a^H (FcγRIIa, histidine-131 variant), recombinant (human) (UniProt P12318). As to the kind of experiment: SPR (Biacore 3000), steady state, monomeric IgG, pH 7.4.
The target of assay [2] is site-specific biotinylated monomeric human CD32a^R (FcγRIIa, arginine-131 variant), recombinant (human) (UniProt P12318). The assay is described as above.
The target in assay [3] is site-specific biotinylated monomeric human CD32a^H (FcγRIIa, histidine-131 variant), recombinant (human) (UniProt P12318). As to the kind of experiment: SPR steady state (refers to Table 6).
Assay [4] addresses His-tagged soluble mouse FcRn (mFcRn), recombinant (mouse) (UniProt Q61559). Briefly: method not stated; neutral pH.
The target in assay [5] is T1, His-tagged soluble human FcRn (hFcRn), recombinant (human, UniProt P55899 24-290; P61769 21-119, limits assumed).
T1 construct: Made in an insect cell system 'as described previously'; also called recombinant hFcRn; hFcRn reporter complex (with ALP-conjugated hFcRn-specific nanobody)
Briefly: bridging ELISA at pH 5.5: hFcRn/ALP-nanobody reporter complex at one concentration on captured CD32a^H without IgG. On the technique in general: ELISA stands for enzyme-linked immunosorbent assay.

Assay [6] has as its target T2, His-tagged soluble mouse FcRn (mFcRn), recombinant (mouse, UniProt Q61559 22-290; P01887 21-119, limits assumed).
T2 construct: Made in an insect cell system 'as described previously'; also called recombinant mFcRn
T2 sequence (looked up): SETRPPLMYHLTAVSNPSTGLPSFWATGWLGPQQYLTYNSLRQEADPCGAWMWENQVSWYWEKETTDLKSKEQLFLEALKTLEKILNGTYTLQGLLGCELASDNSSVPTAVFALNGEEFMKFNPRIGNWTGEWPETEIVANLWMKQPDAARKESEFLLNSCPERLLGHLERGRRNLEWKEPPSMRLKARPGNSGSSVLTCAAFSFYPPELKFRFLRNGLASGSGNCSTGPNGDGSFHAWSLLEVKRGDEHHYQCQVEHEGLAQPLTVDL
T2 sequence (b2m, looked up): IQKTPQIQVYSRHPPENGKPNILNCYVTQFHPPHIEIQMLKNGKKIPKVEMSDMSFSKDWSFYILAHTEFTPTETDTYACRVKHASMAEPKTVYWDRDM
Briefly: SPR at pH 5.5: mFcRn injected alone over CD32a^H captured on neutravidin (variant as titled on the sheet); the concentration is not printed on the sheet.
Procedure: (§1) Recombinant C-terminus-biotinylated CD32a variants were captured on neutravidin-coated plates. Analyte(s) were then injected as indicated and specified in the material and methods. […] Recombinant C-terminus-biotinylated CD32a variants were captured on neutravidin amine-coupled CM5 sensor chips. Analyte(s) were then injected as indicated and specified in the material and methods.
(§2) The cDNAs encoding for CD32a^R and CD32a^H were subcloned into a pcDNA3.1 vector and sequences verified by DNA sequencing. […] To obtain clones with similar expression of CD32a^R or CD32a^H, transfected MDCK-II, HEK293T^H2-Kb, and RAW264.7 were processed by fluorescence-activated cell sorting (FACS; BD FACSAria II™). SPR and ELISA CD32a-IgG-FcRn binding SPR analysis was performed using a Biacore 3000™ instrument (GE Healthcare™). CM5™ sensor chips (GE Healthcare™) were coupled with neutrAvidin (Pierce™) (~1000 RU) using amine coupling chemistry, by injecting 5 g/ml in 10 mM sodium acetate, pH 4.5 (GE Healthcare™) at 25° C.).

In assay [7] the target is T2, His-tagged soluble mouse FcRn (mFcRn), …. Briefly: SPR at pH 5.5: mFcRn injected alone over CD32a^R captured on neutravidin (variant as titled on the sheet); the concentration is not printed on the sheet.
Procedure: as §1, §2
Assay [8] deals with T1, His-tagged soluble human FcRn (hFcRn), …. As to the kind of experiment: bridging ELISA at pH 5.5: hFcRn/ALP-nanobody reporter complex at one concentration on captured CD32a^R without IgG.

T1 sequence (P55899 24-290 limits assumed, chain 1 of 2): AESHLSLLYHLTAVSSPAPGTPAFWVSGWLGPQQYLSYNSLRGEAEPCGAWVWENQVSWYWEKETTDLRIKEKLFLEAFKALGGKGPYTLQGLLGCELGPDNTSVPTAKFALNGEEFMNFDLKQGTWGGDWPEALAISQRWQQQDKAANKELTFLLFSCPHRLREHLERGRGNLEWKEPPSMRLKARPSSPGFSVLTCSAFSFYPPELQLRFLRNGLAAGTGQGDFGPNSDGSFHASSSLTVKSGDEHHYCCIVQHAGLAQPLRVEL
T1 sequence (P61769 21-119 limits assumed, chain 2 of 2): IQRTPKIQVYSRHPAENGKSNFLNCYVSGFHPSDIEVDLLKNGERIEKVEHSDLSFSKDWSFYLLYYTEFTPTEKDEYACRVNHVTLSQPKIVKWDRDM

For the molecule “anti-NIP chimeric IgG with wild type human IgG1 Fc (hIgG1^WT) (antibody)”, the Kd stood at 1300 nM in assay [1] and 2000 nM in assay [2].
In the case of “anti-NIP hIgG1-I253A/H310A/H435A (hIgG1^IHH) (from UniProt P01857 1-330) (antibody)”, the dissociation constant Kd in assay [1] was 4800 nM.
With “anti-NIP hIgG1-M252Y/S254T/T256E/H433K/N434F (hIgG1^MST/HN) (from UniProt P01857 1-330) (antibody)”, the decrease of binding against hIgG1^WT in assay [3] turned out to be 50%. Moreover, the dissociation constant Kd in assay [1] was found to be 2800 nM; in assay [4] it was 7.4 nM.

B1: site-specific biotinylated monomeric human CD32a^H (FcγRIIa, histidine-131 variant), recombinant (receptor, UniProt P12318 34-218, looked up)
chain: QAAAPPKAVLKLEPPWINVLQEDSVTLTCQGARSPESDSIQWFHNGNLIPTHTQPSYRFKANNNDSGEYTCQTGQTSLSDPVHLTVLSEWLVLQTPHLEFQEGETIMLRCHSWKDKPLVKVTFFQNGKSQKFSHLDPTFSIPQANHSHSGDYHCTGNIGYTLFSSKPVTITVQVPSMGSSSPMGI
modifications: C-terminus biotinylated
notes: Bought recombinant protein; also called CD32a-H131; C-terminus biotinylated CD32a^H
For the molecule B1, the binding result in assay [5] and in assay [6] was “no binding” in each case.

B2: site-specific biotinylated monomeric human CD32a^R (FcγRIIa, arginine-131 variant), recombinant (receptor, UniProt P12318 34-218, looked up)
chain: B1 chain with H134R
modifications: C-terminus biotinylated
notes: Bought recombinant protein; The substitution is written against the histidine-131 form; also called CD32a-R131; C-terminus biotinylated CD32a^R
Regarding B2, the binding result in assay [7] and in assay [8] was “no binding” each time.
